# Test results reported in the supplement of paper PMC9112550, “Optimization of the antimicrobial peptide Bac7 by deep mutational scanning” (BMC Biology, 2022).
# Tested on: Escherichia coli TOP10
# Assay: shrunken log2 fold change of peptide-encoding DNA abundance (4.5 h post-induction vs induction); higher = less antimicrobial activity (less host growth inhibition)
# Conditions: time post-induction: 4.5 h; library: site-saturation at positions 5, 18, 19, 20
# 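Also: peptides expressed intracellularly from a pBAD plasmid library in pooled LB shake-flask culture, induced with 0.3% L-arabinose, DNA abundance read by NGS, three biological replicates, DESeq2 with apeglm shrinkage.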
row,Sequence,shrunken log2 fold change
1,RRIRFRPPRLPRPRPRPWTKPRP,0.0163
2,RRIRSRPPRLPRPRPRPNEYPRP,-1.02
3,RRIRARPPRLPRPRPRPWCAPRP,0.147
4,RRIRFRPPRLPRPRPRPSLGPRP,0.0257
5,RRIRLRPPRLPRPRPRPTNNPRP,-0.524
6,RRIRHRPPRLPRPRPRPVTVPRP,-0.179
7,RRIRLRPPRLPRPRPRPMFIPRP,-0.734
8,RRIRHRPPRLPRPRPRPIQRPRP,-0.204
9,RRIRVRPPRLPRPRPRPTGAPRP,0.47
10,RRIRFRPPRLPRPRPRPIVKPRP,-0.395
11,RRIRARPPRLPRPRPRPVMVPRP,0.0116
12,RRIRDRPPRLPRPRPRPWNTPRP,-0.166
13,RRIRKRPPRLPRPRPRPNNYPRP,-0.259
14,RRIRARPPRLPRPRPRPYAIPRP,2.12
15,RRIRVRPPRLPRPRPRPGANPRP,0.222
16,RRIRRRPPRLPRPRPRPVRQPRP,0.874
17,RRIRRRPPRLPRPRPRPYPKPRP,-0.0202
18,RRIRDRPPRLPRPRPRPEVHPRP,0.168
19,RRIRRRPPRLPRPRPRPLHMPRP,0.0287
20,RRIRRRPPRLPRPRPRPCNFPRP,-0.0159
21,RRIRKRPPRLPRPRPRPVVRPRP,-0.0886
22,RRIRRRPPRLPRPRPRPCPYPRP,0.0825

row,Sequence,shrunken log2 fold change
1,RRIRLRPPRLPRPRPRPSMYPRP,-0.261
2,RRIRSRPPRLPRPRPRPNHYPRP,-0.789
3,RRIRERPPRLPRPRPRPFNGPRP,-0.145
4,RRIRCRPPRLPRPRPRPQWIPRP,-0.692
5,RRIRDRPPRLPRPRPRPSGQPRP,-0.0305
6,RRIRQRPPRLPRPRPRPQECPRP,-0.00962
7,RRIRWRPPRLPRPRPRPIYMPRP,-0.118
8,RRIRSRPPRLPRPRPRPNSFPRP,-0.63
9,RRIRFRPPRLPRPRPRPIPLPRP,-0.483
10,RRIRWRPPRLPRPRPRPSENPRP,-0.134
11,RRIRCRPPRLPRPRPRPYQGPRP,0.0299
12,RRIRIRPPRLPRPRPRPCGHPRP,0.00489
13,RRIRSRPPRLPRPRPRPCNQPRP,-0.391
14,RRIRYRPPRLPRPRPRPATLPRP,-0.307
15,RRIRLRPPRLPRPRPRPNHSPRP,0.135
16,RRIRCRPPRLPRPRPRPQQYPRP,-0.709
17,RRIRRRPPRLPRPRPRPDNMPRP,-0.259
18,RRIRPRPPRLPRPRPRPRCDPRP,0.0398
19,RRIRPRPPRLPRPRPRPDENPRP,-0.0444
20,RRIRGRPPRLPRPRPRPEQGPRP,0.374
21,RRIRCRPPRLPRPRPRPTLCPRP,-0.0107
22,RRIRCRPPRLPRPRPRPAFNPRP,-0.23

row,Sequence,shrunken log2 fold change
1,RRIRLRPPRLPRPRPRPKNYPRP,-0.458
2,RRIRWRPPRLPRPRPRPWYNPRP,-0.119
3,RRIRMRPPRLPRPRPRPKENPRP,1.9
4,RRIRWRPPRLPRPRPRPYNHPRP,-1.43
5,RRIRRRPPRLPRPRPRPDMHPRP,-0.203
6,RRIRVRPPRLPRPRPRPTTTPRP,0.1
7,RRIRPRPPRLPRPRPRPCTCPRP,-0.049
8,RRIRRRPPRLPRPRPRPLMHPRP,0.292
9,RRIRLRPPRLPRPRPRPVLTPRP,-0.198
10,RRIRARPPRLPRPRPRPVTLPRP,-0.121
11,RRIRFRPPRLPRPRPRPRERPRP,1.02
12,RRIRTRPPRLPRPRPRPLPKPRP,-0.0549
13,RRIRERPPRLPRPRPRPIFYPRP,-0.385
14,RRIRYRPPRLPRPRPRPQQDPRP,-0.0899
15,RRIRQRPPRLPRPRPRPYSCPRP,0.0133
16,RRIRKRPPRLPRPRPRPVYYPRP,-0.094
17,RRIRKRPPRLPRPRPRPRHDPRP,0.254
18,RRIRRRPPRLPRPRPRPWRYPRP,0.322
19,RRIRQRPPRLPRPRPRPAYNPRP,0.018
20,RRIRLRPPRLPRPRPRPEMHPRP,-0.132
21,RRIRKRPPRLPRPRPRPDPLPRP,0.282
22,RRIRERPPRLPRPRPRPKAFPRP,0.0124

row,Sequence,shrunken log2 fold change
1,RRIRDRPPRLPRPRPRPMDNPRP,-0.0115
2,RRIRRRPPRLPRPRPRPQPFPRP,-0.0201
3,RRIRFRPPRLPRPRPRPRPWPRP,0.505
4,RRIRMRPPRLPRPRPRPNQHPRP,-0.0206
5,RRIRARPPRLPRPRPRPEYAPRP,0.672
6,RRIRHRPPRLPRPRPRPMHNPRP,0.708
7,RRIRARPPRLPRPRPRPYFMPRP,-0.62
8,RRIRLRPPRLPRPRPRPPGCPRP,0.558
9,RRIRGRPPRLPRPRPRPSVSPRP,0.166
10,RRIRCRPPRLPRPRPRPMFEPRP,-0.212
11,RRIRDRPPRLPRPRPRPRVMPRP,0.106
12,RRIRERPPRLPRPRPRPTRCPRP,-0.0341
13,RRIRYRPPRLPRPRPRPMGAPRP,-0.207
14,RRIRHRPPRLPRPRPRPMCAPRP,-0.446
15,RRIRCRPPRLPRPRPRPCKAPRP,-0.0437
16,RRIRCRPPRLPRPRPRPIYRPRP,-0.318
17,RRIRWRPPRLPRPRPRPTVLPRP,0.188
18,RRIRVRPPRLPRPRPRPRTLPRP,-0.222
19,RRIRLRPPRLPRPRPRPQTMPRP,-0.0345
20,RRIRNRPPRLPRPRPRPDSLPRP,0.0321
21,RRIRDRPPRLPRPRPRPNYYPRP,-0.305
22,RRIRGRPPRLPRPRPRPTWVPRP,0.493

row,Sequence,shrunken log2 fold change
1,RRIRIRPPRLPRPRPRPEIEPRP,-0.0562
2,RRIRDRPPRLPRPRPRPVYAPRP,-0.025
3,RRIRSRPPRLPRPRPRPAPIPRP,0.133
4,RRIRIRPPRLPRPRPRPVKLPRP,-0.0316
5,RRIRPRPPRLPRPRPRPDGVPRP,0.14
6,RRIRNRPPRLPRPRPRPIVYPRP,-0.528
7,RRIRTRPPRLPRPRPRPQNEPRP,-0.276
8,RRIRTRPPRLPRPRPRPTISPRP,-0.488
9,RRIRRRPPRLPRPRPRPKKNPRP,0.496
10,RRIRMRPPRLPRPRPRPHCVPRP,0.0437
11,RRIRRRPPRLPRPRPRPIKDPRP,-0.0902
12,RRIRLRPPRLPRPRPRPRIQPRP,0.239
13,RRIRNRPPRLPRPRPRPNVWPRP,0.0184
14,RRIRYRPPRLPRPRPRPFLQPRP,-0.218
15,RRIRARPPRLPRPRPRPFYRPRP,-0.178
16,RRIRQRPPRLPRPRPRPKEAPRP,0.107
17,RRIRSRPPRLPRPRPRPPCYPRP,-0.145
18,RRIRNRPPRLPRPRPRPMQYPRP,-0.267
19,RRIRRRPPRLPRPRPRPKAPPRP,0.0122
20,RRIRIRPPRLPRPRPRPADIPRP,0.00782
21,RRIRSRPPRLPRPRPRPMNDPRP,-0.075
